Experimental data as given in patent US20230374130A1 (published 2023).

Target: human CD3 epsilon (CD3ε) (human, UniProt P07766 23-207)
Experiment: binding kinetics

Sequence of human CD3 epsilon (CD3ε) (P07766 23-207): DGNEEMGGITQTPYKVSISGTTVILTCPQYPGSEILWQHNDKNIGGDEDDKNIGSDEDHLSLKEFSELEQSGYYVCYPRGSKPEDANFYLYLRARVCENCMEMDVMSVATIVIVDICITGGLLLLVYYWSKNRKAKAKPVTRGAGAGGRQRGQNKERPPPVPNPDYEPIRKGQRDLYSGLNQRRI

B1: 160C9_T4h (bispecific antibody)
light: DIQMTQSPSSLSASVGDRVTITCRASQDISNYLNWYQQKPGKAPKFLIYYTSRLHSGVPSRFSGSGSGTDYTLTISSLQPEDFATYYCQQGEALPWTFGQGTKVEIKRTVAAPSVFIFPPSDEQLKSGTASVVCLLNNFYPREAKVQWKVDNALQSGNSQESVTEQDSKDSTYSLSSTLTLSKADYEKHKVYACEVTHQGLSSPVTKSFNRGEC
heavy 1: QVQLVQSGAEVKKPGASVKVSCKASGYKFTSYWIEWVRQAPGQGLEWIGEILPGSDTTNYNEKFKDRVTFTSDTSTSTVYMELSSLRSEDTAVYYCARDRGNYRAWFGYWGQGTLVTVSSASTKGPSVFPLAPSSKSTSGGTAALGCLVKDYFPEPVTVSWNSGALTSGVHTFPAVLQSSGLYSLSSVVTVPSSSLGTQTYICNVNHKPSNTKVDKKVEPKSCDKTHTCPPCPAPEAAGAPSVFLFPPKPKDTLMISRTPEVTCVVVDVSHEDPEVKFNWYVDGVEVHNAKTKPREEQYNSTYRVVSVLTVLHQDWLNGKEYKCKVSNKALPAPIEKTISKAKGQPREPQVYTLPPSRDELTKNQVSLSCAVKGFYPSDIAVEWESNGQPENNYKTTPPVLDSDGSFFLVSKLTVDKSRWQQGNVFSCSVMHEALHNHYTQKSLSLSPG
heavy 2: not shown
Q: With B1 as the binder, how does the Kd read?
A: The Kd was 12 nM.
